# From article PMC6038944 (Biochemistry, 2018)
# How the values were obtained:
# [1] = target: apo-transferrin (iron-free serotransferrin) (UniProt P02787); assay: SPR; conditions: 150 mM NaCl, pH 7.4: 20 mM HEPES, pH 6.0: 20 mM PIPES
# [2] = target: the molecule itself
# Sequence of apo-transferrin (iron-free serotransferrin) (P02787 whole entry): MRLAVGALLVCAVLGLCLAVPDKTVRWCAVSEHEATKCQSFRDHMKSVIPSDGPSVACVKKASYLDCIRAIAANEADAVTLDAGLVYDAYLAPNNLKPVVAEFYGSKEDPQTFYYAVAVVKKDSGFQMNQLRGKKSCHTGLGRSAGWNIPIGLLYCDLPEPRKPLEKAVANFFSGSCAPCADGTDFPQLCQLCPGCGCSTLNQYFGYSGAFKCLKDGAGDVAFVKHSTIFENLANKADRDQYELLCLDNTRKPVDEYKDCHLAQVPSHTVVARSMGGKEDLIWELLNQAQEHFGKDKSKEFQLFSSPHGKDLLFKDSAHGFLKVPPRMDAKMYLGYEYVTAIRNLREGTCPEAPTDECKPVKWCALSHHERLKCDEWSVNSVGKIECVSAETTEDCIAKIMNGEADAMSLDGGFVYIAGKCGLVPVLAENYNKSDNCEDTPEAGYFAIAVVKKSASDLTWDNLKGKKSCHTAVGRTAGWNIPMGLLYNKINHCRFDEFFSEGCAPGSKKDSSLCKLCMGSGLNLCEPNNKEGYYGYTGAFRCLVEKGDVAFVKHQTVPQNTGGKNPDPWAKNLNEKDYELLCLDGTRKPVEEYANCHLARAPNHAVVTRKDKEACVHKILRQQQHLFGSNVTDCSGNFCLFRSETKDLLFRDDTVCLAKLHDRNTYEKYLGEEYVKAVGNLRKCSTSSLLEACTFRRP
Molecule,ka1 ([1]; pH 6.0) [M⁻¹ s⁻¹],ka2 ([1]; pH 6.0) [M⁻¹ s⁻¹],kd1 ([1]; pH 6.0) [s⁻¹],kd2 ([1]; pH 6.0) [s⁻¹],ka1 ([1]; pH 7.4) [M⁻¹ s⁻¹],ka2 ([1]; pH 7.4) [M⁻¹ s⁻¹],kd1 ([1]; pH 7.4) [s⁻¹],kd2 ([1]; pH 7.4) [s⁻¹],stoichiometry N [2]
EGFP-TfR2-TfR1HD (TfR2 chimera carrying the TfR1 helical domain) helical domain swap: TfR2 637-801 replaced by TfR1 605-760,160000,1.03e+06,350,4950,510000,163000,2500,78300,
"EGFP-TfR1 (full-length transferrin receptor 1, EGFP fusion)",1.01e+06,3.01e+06,1.2,,450000,19000,22000,,
"EGFP-TfR2 (full-length transferrin receptor 2, EGFP fusion)",150000,34000,1100,643,66000,6300,44000,8160,
"full-length EGFP-TfR2 (transferrin receptor-2) (receptor, human, UniProt Q9UP52 1-801, looked up) MERLWGLFQRAQQLSPRSSQTVYQRVEGPRKGHLEEEEEDGEEGAETLAHFCPMELRGPEPLGSRPRQPNLIPWAAAGRRAAPYLVLTALLIFTGAFLLGYVAFRGSCQACGDSVLVVSEDVNYEPDLDFHQGRLYWSDLQAMFLQFLGEGRLEDTIRQTSLRERVAGSAGMAALTQDIRAALSRQKLDHVWTDTHYVGLQFPDPAHPNTLHWVDEAGKVGEQLPLEDPDVYCPYSAIGNVTGELVYAHYGRPEDLQDLRARGVDPVGRLLLVRVGVISFAQKVTNAQDFGAQGVLIYPEPADFSQDPPKPSLSSQQAVYGHVHLGTGDPYTPGFPSFNQTQFPPVASSGLPSIPAQPISADIASRLLRKLKGPVAPQEWQGSLLGSPYHLGPGPRLRLVVNNHRTSTPINNIFGCIEGRSEPDHYVVIGAQRDAWGPGAAKSAVGTAILLELVRTFSSMVSNGFRPRRSLLFISWDGGDFGSVGSTEWLEGYLSVLHLKAVVYVSLDNAVLGDDKFHAKTSPLLTSLIESVLKQVDSPNHSGQTLYEQVVFTNPSWDAEVIRPLPMDSSAYSFTAFVGVPAVEFSFMEDDQAYPFLHTKEDTYENLHKVLQGRLPAVAQAVAQLAGQLLIRLSHDRLLPLDFGRYGDVVLRHIGNLNEFSGDLKARGLTLQWVYSARGDYIRAAEKLRQEIYSSEERDERLTRMYNVRIMRVEFYFLSQYVSPADSPFRHIFMGRGDHTLGALLDHLRLLRSNSSGTPGATSSTGFQESRFRRQLALLTWTLQGAANALSGDVWNIDNNF",,,,,,,,,2
